The text below walks through data of patent publication US20050123549A1 (IMMUNOGEN, published 2005).

Experiment [1] addresses T1, Muc1 mucin carrying the CA6 sialoglycotope (human, UniProt P15941 24-1255, sialylated O-linked carbohydrate carrying the CA6 epitope; positions not stated).
T1 construct: whole, on cells; Target of DS6 on CA6-positive human cell lines (flow cytometry) and in their lysates (dot blots, immunoprecipitation); also called CA6 antigen; DS6 antigen
Kind of experiment: flow cytometry on Caov-3 cells, FITC anti-mouse IgG. The procedure:
The fluorescence of cell lines incubated with the DS6 primary antibody and FITC conjugated anti-mouse IgG(H+L) secondary antibodies was measured by flow cytometry.
(§1) Cells ([…]) were incubated, on ice for 3-4 h, with serially diluted concentrations of the DS6 antibody prepared in FACS buffer (2% goat serum, RPMI) into 96-well plates. The cells were spun down in a table top centrifuge at 1500 rpm for 5 min at 4° C. After removing the media, the wells were then refilled with 150 μl of FACS buffer. The wash step was then repeated. FITC-labeled goat anti-mouse IgG (Jackson Immunoresearch) was diluted 1:100 to FACS buffer and incubated with the cells for 1 h on ice. The plate was covered in foil to prevent photobleaching of the signal. After two washes, the cells were fixed with 1% formaldehyde and analyzed on a flow cytometer.
(Flow cytometry measures light scatter and fluorescence of single cells or particles in a stream.)

The target in experiment [2] is T1, Muc1 mucin carrying the CA6 …. Kind of experiment: flow cytometry on HPAC cells, apparent Kd. The procedure: (§2) Human cell lines were obtained from the American Type Culture Collection (ATCC) with the exception of OVCAR5 (Kearse et al., Int. J. Cancer 88(6):866-872 (2000)), OVCAR8 and IGROV1 cells (M. Seiden, Massachusetts General Hospital). All cells were grown in RPMI 1640 supplemented with 4 mM L-glutamine, 50 U/ml penicillin, 50 μg/ml streptomycin (Cambrex Bio Science, Rockland, Me.) and 10% v/v fetal bovine serum (Atlas Biologicals, Fort Collins, Colo.), referred hereafter as culture media. Cells were maintained in a 37° C., 5% CO₂ humidified incubator.
as §1

The target is the same in experiment [3]. In words: flow cytometry on BT-20 cells, apparent Kd. The procedure:
as §2, §1

Experiment [4] has the same target. Kind of experiment: flow cytometry on TOV-21G cells, apparent Kd.
Experiment [5] shares this target. In words: flow cytometry on MDA-MB-468 cells, apparent Kd. The procedure:
as §2, §1

Experiment [6] has the same target. Kind of experiment: flow cytometry on HPAC cells, apparent Kd. The procedure:
as §1
The source holds these as a separate data set.

For experiment [7] the target is unchanged. In words: flow cytometry on Caov-4 cells, apparent Kd. The procedure: as §1
For experiment [8] the target is unchanged. Kind of experiment: flow cytometry on CaOV3 cells, apparent Kd.
Experiment [9] shares this target. In words: flow cytometry on BT549 cells, apparent Kd.
Experiment [10] shares this target. In words: flow cytometry on ZR-75-1 cells, apparent Kd. The procedure: as §2, §1
For experiment [11] the target is unchanged. In words: flow cytometry on MDA-MB-231 cells, apparent Kd. The procedure: as §2, §1
For experiment [12] the target is unchanged. Kind of experiment: flow cytometry on HPAF-II cells, apparent Kd.
Experiment [13] shares this target. In words: flow cytometry on SW1990 cells, apparent Kd. The procedure: as §2, §1
Experiment [14] has the same target. Kind of experiment: flow cytometry on Caov-4 cells, apparent Kd. The procedure:
as §1
The source holds these as a separate data set.

Experiment [15] has the same target. In words: flow cytometry on T-47D cells, apparent Kd. The procedure:
as §2, §1

The target is the same in experiment [16]. In words: flow cytometry on Caov-3 cells.
Experiment [17] has the same target. Kind of experiment: flow cytometry on HeLa cells.
The target is the same in experiment [18]. In words: flow cytometry on HeLa cells, apparent Kd.
Experiment [19] shares this target. In words: flow cytometry on TOV-21G cells, apparent Kd. The procedure: as §2, §1
This is another data set of the same source.

For experiment [20] the target is unchanged. In words: flow cytometry on Hs766T cells, apparent Kd.
Experiment [21] shares this target. Kind of experiment: cell-based or functional assay.

B1: murine DS6 anti-CA6 monoclonal antibody (antibody, IgG1, V domains shown)
VH: QAYLQQSGAELVRSGASVKMSCKASGYTFTSYNMHWVKQTPGQGLEWIGYIYPGNGATNYNQKFKGKATLTADPSSSTAYMQISSLTSEDSAVYFCARGDSVPFAYWGQGTLVTVSA
VL: QIVLTQSPAIMSASPGEKVTITCSAHSSVSFMHWFQQKPGTSPKLWIYSTSSLASGVPARFGGSGSGTSYSLTISRMEAEDAATYYCQQRSSFPLTFGAGTKLELKR
notes: Whole murine monoclonal IgG from the DS6 hybridoma (ATCC PTA-4449); the 3' heavy chain cloning primer was BamIgG1 and the light chain primer was kappa; also called DS6 antibody; muDS6
Take B1: the Kd in [1] was 1.85 nM; in experiment [2], 23.5 nM; in experiment [3] it was 0.914 nM; in experiment [4], 0.307 nM; in experiment [5] it was 0.813 nM; in experiment [6], 23.5 nM. Besides, the Kd in experiment [7] was determined as 4.04 nM; in [8], 5.48 nM; in experiment [9], 1.05 nM; in [10], 4.3 nM; in [11], 1.46 nM; in [12], 2.81 nM. For the same molecule, the Kd amounted to 0.368 nM in experiment [13]; 4.04 nM in [14]; 3.42 nM in experiment [15]; 2.02 nM in [16]; 0.62 nM in experiment [17]; 0.694 nM in [18]. Besides, the Kd is 0.307 nM in experiment [19] and 2.32 nM in experiment [20]. In addition, in [21], the “indirect cell viability assay, DS6 with anti-mouse IgG (H+L) DM1 conjugate, Caov-3 cells, IC50” value came to 425 pM.
